± gives the standard deviation of the averaged measurements.

Consider six sequences from the supplement of paper PMC11316812.

The subject of one data set is MCF7. Briefly: percentage of EdU-negative (G0-arrested) nuclei per well, 72 h; higher = more G0 arrest. Conditions: reference: sequence is the full UniProt precursor, the tested protein was the secreted form or ectodomain.
The subject of the next data set is hTERT-HMEC. The description is as above. Conditions: reference: sequence is the full UniProt precursor, the tested protein was the secreted form or ectodomain.
Setting [1] is: protein concentration 0.00685714 µM.
Setting [2] is: protein concentration 0.0685714 µM.
The mark [3] stands for this setting: protein concentration 0.0175 µM.
Where [4] appears, read: protein concentration 0.03125 µM.
Setting [5] is: protein concentration 0.3125 µM.
Setting [6] is: protein concentration 0.0225 µM.
Setting [7] is: protein concentration 0.02175 µM.
The mark [8] stands for this setting: protein concentration 0.2175 µM.
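Note: secreted proteins added to cultured cells, EdU pulse at the end, nuclei found by Hoechst imaging, EdU status from nuclear versus surrounding ring intensity ratio, PBS as neutral control.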

“MSAAWIPALGLGVCLLLLPGPAGSEGAAPIAITCFTRGLDIRKEKADVLCPGGCPLEEFSVYGNIVYASVSSICGAAVHRGVISNSGGPVRVYSLPGRENYSSVDANGIQSQMLSRWSASFTVTKGKSSTQEATGQAVSTAHPPTGKRLKKTPEKKTGNKDCKADIAFLIDGSFNIGQRRFNLQKNFVGKVALMLGIGTEGPHVGLVQASEHPKIEFYLKNFTSAKDVLFAIKEVGFRGGNSNTGKALKHTAQKFFTVDAGVRKGIPKVVVVFIDGWPSDDIEEAGIVAREFGVNVFIVSVAKPIPEELGMVQDVTFVDKAVCRNNGFFSYHMPNWFGTTKYVKPLVQKLCTHEQMMCSKTCYNSVNIAFLIDGSSSVGDSNFRLMLEFVSNIAKTFEISDIGAKIAAVQFTYDQRTEFSFTDYSTKENVLAVIRNIRYMSGGTATGDAISFTVRNVFGPIRESPNKNFLVIVTDGQSYDDVQGPAAAAHDAGITIFSVGVAWAPLDDLKDMASKPKESHAFFTREFTGLEPIVSDVIRGICRDFLESQQ”: the “percentage of EdU-negative” value is 23.1 ± 2.5% in the data set on MCF7 (setting [1]), 25.4 ± 0.26% in the data set on MCF7 (setting [2]), 4.89 ± 0.28% with hTERT-HMEC (setting [1]) and 7.63 ± 0.47% in the data set with hTERT-HMEC (setting [2]).
On to “MSAFRLWPGLLIMLGSLCHRGSPCGLSTHVEIGHRALEFLQLHNGRVNYRELLLEHQDAYQAGIVFPDCFYPSICKGGKFHDVSESTHWTPFLNASVHYIRENYPLPWEKDTEKLVAFLFGITSHMAADVSWHSLGLEQGFLRTMGAIDFHGSYSEAHSAGDFGGDVLSQFEFNFNYLARRWYVPVKDLLGIYEKLYGRKVITENVIVDCSHIQFLEMYGEMLAVSKLYPTYSTKSPFLVEQFQEYFLGGLDDMAFWSTNIYHLTSFMLENGTSDCNLPENPLFIACGGQQNHTQGSKMQKNDFHRNLTTSLTESVDRNINYTERGVFFSVNSWTPDSMSFIYKALERNIRTMFIGGSQLSQKHVSSPLASYFLSFPYARLGWAMTSADLNQDGHGDLVVGAPGYSRPGHIHIGRVYLIYGNDLGLPPVDLDLDKEAHRILEGFQPSGRFGSALAVLDFNVDGVPDLAVGAPSVGSEQLTYKGAVYVYFGSKQGGMSSSPNITISCQDIYCNLGWTLLAADVNGDSEPDLVIGSPFAPGGGKQKGIVAAFYSGPSLSDKEKLNVEAANWTVRGEEDFSWFGYSLHGVTVDNRTLLLVGSPTWKNASRLGHLLHIRDEKKSLGRVYGYFPPNGQSWFTISGDKAMGKLGTSLSSGHVLMNGTLKQVLLVGAPTYDDVSKVAFLTVTLHQGGATRMYALTSDAQPLLLSTFSGDRRFSRFGGVLHLSDLDDDGLDEIIMAAPLRIADVTSGLIGGEDGRVYVYNGKETTLGDMTGKCKSWITPCPEEKAQYVLISPEASSRFGSSLITVRSKAKNQVVIAAGRSSLGARLSGALHVYSLGSD”, for which the “percentage of EdU-negative” value turned out to be 25.88 ± 0.089% in the data set with MCF7 (setting [3]), 31.8 ± 1.3% with MCF7 (protein concentration 0.175 µM), 4.66 ± 0.8% in the data set on hTERT-HMEC (setting [3]) and 7.38 ± 0.61% with hTERT-HMEC (protein concentration 0.175 µM).
In the case of “MSALGAVIALLLWGQLFAVDSGNDVTDIADDGCPKPPEIAHGYVEHSVRYQCKNYYKLRTEGDGVYTLNDKKQWINKAVGDKLPECEADDGCPKPPEIAHGYVEHSVRYQCKNYYKLRTEGDGVYTLNNEKQWINKAVGDKLPECEAVCGKPKNPANPVQRILGGHLDAKGSFPWQAKMVSHHNLTTGATLINEQWLLTTAKNLFLNHSENATAKDIAPTLTLYVGKKQLVEIEKVVLHPNYSQVDIGLIKLKQKVSVNERVMPICLPSKDYAEVGRVGYVSGWGRNANFKFTDHLKYVMLPVADQDQCIRHYEGSTVPEKKTPKSPVGVQPILNEHTFCAGMSKYQEDTCYGDAGSAFAVHDLEEDTWYATGILSFDKSCAVAEYGVYVKVTSIQDWVQKTIAEN”, the “percentage of EdU-negative” value stood at 23.8 ± 3% in the data set on MCF7 (setting [4]), 23.1 ± 0.73% with MCF7 (setting [5]), 4.46 ± 0.32% in the data set with hTERT-HMEC (setting [4]) and 5.96 ± 1.1% with hTERT-HMEC (setting [5]).
Consider “MSALWLLLGLLALMDLSESSNWGCYGNIQSLDTPGASCGIGRRHGLNYCGVRASERLAEIDMPYLLKYQPMMQTIGQKYCMDPAVIAGVLSRKSPGDKILVNMGDRTSMVQDPGSQAPTSWISESQVSQTTEVLTTRIKEIQRRFPTWTPDQYLRGGLCAYSGGAGYVRSSQDLSCDFCNDVLARAKYLKRHGF [Q8N1E2]”, for which the “percentage of EdU-negative” value is 25.6 ± 2% in the data set on MCF7 (setting [6]), 25.2 ± 0.58% with MCF7 (protein concentration 0.225 µM), 4.76 ± 1.4% in the data set with hTERT-HMEC (setting [6]) and 6.97 ± 0.29% in the data set with hTERT-HMEC (protein concentration 0.225 µM).
Consider “MSAVLLLALLGFILPLPGVQALLCQFGTVQHVWKVSDLPRQWTPKNTSCDSGLGCQDTLMLIESGPQVSLVLSKGCTEAKDQEPRVTEHRMGPGLSLISYTFVCRQEDFCNNLVNSLPLWAPQPPADPGSLRCPVCLSMEGCLEGTTEEICPKGTTHCYDGLLRLRGGGIFSNLRVQGCMPQPGCNLLNGTQEIGPVGMTENCNRKDFLTCHRGTTIMTHGNLAQEPTDWTTSNTEMCEVGQVCQETLLLLDVGLTSTLVGTKGCSTVGAQNSQKTTIHSAPPGVLVASYTHFCSSDLCNSASSSSVLLNSLPPQAAPVPGDRQCPTCVQPLGTCSSGSPRMTCPRGATHCYDGYIHLSGGGLSTKMSIQGCVAQPSSFLLNHTRQIGIFSAREKRDVQPPASQHEGGGAEGLESLTWGVGLALAPALWWGVVCPSC [Q8N6Q3]”, for which the “percentage of EdU-negative” value in the data set with MCF7 (setting [7]) is 26.1 ± 2.3%; in the data set on MCF7 (setting [8]) it was 26.7 ± 1%; in the data set on hTERT-HMEC (setting [7]), 4.87 ± 0.96%; in the data set with hTERT-HMEC (setting [8]) it was 6.31 ± 0.15%.
In the case of “MSCPVPACCALLLVLGLCRARPRNALLLLADDGGFESGAYNNSAIATPHLDALARRSLLFRNAFTSVSSCSPSRASLLTGLPQHQNGMYGLHQDVHHFNSFDKVRSLPLLLSQAGVRTGIIGKKHVGPETVYPFDFAYTEENGSVLQVGRNITRIKLLVRKFLQTQDDRPFFLYVAFHDPHRCGHSQPQYGTFCEKFGNGESGMGRIPDWTPQAYDPLDVLVPYFVPNTPAARADLAAQYTTVGRMDQGVGLVLQELRDAGVLNDTLVIFTSDNGIPFPSGRTNLYWPGTAEPLLVSSPEHPKRWGQVSEAYVSLLDLTPTILDWFSIPYPSYAIFGSKTIHLTGRSLLPALEAEPLWATVFGSQSHHEVTMSYPMRSVQHRHFRLVHNLNFKMPFPIDQDFYVSPTFQDLLNRTTAGQPTGWYKDLRHYYYRARWELYDRSRDPHETQNLATDPRFAQLLEMLRDQLAKWQWETHDPWVCAPDGVLEEKLSPQCQPLHNEL”, the “percentage of EdU-negative” value in the data set on MCF7 (setting [6]) turned out to be 28.4 ± 3.8%; in the data set on MCF7 (protein concentration 0.225 µM), 26.4 ± 0.34%; in the data set with hTERT-HMEC (setting [6]), 5.35 ± 1.4%; in the data set on hTERT-HMEC (protein concentration 0.225 µM) it was 7.84 ± 0.29%.
